Data published in patent publication US20230183713A1, “SITE-SPECIFIC RECOMBINASES FOR EFFICIENT AND SPECIFIC GENOME EDITING” (TECHNISCHE UNIVERSITÄt DRESDEN, published 2023).

How the values were obtained:
[1] = biological target: T1, Cre recombinase monomer with E176H mutation
T1 chain: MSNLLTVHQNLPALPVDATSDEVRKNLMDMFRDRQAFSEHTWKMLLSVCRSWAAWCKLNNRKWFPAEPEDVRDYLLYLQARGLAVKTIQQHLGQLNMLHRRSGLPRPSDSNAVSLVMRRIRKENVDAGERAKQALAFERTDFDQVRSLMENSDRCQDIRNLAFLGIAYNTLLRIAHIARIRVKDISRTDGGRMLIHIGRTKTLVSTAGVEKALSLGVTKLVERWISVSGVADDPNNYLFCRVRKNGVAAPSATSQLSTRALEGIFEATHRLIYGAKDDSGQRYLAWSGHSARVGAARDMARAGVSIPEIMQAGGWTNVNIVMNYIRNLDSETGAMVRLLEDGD

[2] = biological target: T2, Cre recombinase monomer with K201F mutation
T2 chain: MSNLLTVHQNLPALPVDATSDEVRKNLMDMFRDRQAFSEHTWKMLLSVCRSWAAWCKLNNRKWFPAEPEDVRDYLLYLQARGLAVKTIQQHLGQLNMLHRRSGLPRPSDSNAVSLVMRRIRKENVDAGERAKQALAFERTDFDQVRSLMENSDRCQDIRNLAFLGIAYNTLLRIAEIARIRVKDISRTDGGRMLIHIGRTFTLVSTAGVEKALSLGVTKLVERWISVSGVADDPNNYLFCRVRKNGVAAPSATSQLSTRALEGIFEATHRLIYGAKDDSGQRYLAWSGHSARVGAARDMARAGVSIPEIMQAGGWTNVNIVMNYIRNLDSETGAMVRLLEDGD

[3] = biological target: T3, Cre recombinase monomer with Q311R mutation
T3 chain: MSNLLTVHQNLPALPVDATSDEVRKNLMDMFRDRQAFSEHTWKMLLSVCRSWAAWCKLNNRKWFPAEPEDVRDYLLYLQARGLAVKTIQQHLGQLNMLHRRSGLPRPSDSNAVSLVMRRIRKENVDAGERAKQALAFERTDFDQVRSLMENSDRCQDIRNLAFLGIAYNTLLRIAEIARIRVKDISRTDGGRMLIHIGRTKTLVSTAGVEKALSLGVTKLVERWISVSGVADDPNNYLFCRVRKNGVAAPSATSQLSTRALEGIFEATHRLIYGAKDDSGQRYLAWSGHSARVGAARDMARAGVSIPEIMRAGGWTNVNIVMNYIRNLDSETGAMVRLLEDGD

[4] = biological target: T4, Cre recombinase monomer with W315M mutation
T4 chain: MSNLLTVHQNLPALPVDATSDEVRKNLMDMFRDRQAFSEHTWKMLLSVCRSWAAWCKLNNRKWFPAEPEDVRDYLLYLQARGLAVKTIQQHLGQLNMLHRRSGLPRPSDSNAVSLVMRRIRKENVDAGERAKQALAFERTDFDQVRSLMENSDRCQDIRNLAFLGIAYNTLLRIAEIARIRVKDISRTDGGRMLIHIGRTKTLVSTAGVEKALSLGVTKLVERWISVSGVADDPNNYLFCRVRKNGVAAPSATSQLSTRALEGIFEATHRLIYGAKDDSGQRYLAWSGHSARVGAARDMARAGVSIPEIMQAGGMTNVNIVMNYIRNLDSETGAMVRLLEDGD

[5] = biological target: T5, Cre recombinase monomer with Y324N mutation
T5 chain: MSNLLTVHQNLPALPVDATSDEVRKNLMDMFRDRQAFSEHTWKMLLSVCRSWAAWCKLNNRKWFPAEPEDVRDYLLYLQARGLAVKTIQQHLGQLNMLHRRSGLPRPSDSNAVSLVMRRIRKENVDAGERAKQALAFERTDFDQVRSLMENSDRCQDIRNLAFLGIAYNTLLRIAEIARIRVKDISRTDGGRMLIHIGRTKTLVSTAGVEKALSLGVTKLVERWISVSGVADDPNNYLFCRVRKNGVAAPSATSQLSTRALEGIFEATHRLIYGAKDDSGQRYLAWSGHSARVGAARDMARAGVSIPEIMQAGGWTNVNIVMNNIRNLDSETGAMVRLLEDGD

[6] = biological target: T6, Cre recombinase monomer with E176I mutation
T6 chain: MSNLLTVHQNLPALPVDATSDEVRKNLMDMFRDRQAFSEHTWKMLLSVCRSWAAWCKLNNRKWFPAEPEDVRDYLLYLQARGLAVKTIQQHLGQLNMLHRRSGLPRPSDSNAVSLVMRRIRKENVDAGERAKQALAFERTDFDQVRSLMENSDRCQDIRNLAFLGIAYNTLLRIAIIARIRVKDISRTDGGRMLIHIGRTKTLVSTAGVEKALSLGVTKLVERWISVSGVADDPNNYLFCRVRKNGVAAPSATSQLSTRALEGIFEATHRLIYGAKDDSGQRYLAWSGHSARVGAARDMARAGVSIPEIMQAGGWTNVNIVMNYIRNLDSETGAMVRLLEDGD

[7] = biological target: T7, Cre recombinase monomer with E176V mutation
T7 chain: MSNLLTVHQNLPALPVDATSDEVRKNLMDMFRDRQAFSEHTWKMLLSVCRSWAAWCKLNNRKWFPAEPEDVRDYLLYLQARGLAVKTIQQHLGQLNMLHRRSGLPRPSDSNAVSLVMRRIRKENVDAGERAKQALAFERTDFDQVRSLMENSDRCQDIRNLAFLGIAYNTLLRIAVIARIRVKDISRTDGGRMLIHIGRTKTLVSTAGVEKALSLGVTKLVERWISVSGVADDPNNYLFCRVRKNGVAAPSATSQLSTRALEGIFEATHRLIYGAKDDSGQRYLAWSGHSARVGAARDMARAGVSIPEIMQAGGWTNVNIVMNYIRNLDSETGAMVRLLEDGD

[8] = biological target: T8, Cre recombinase monomer with K201W mutation
T8 chain: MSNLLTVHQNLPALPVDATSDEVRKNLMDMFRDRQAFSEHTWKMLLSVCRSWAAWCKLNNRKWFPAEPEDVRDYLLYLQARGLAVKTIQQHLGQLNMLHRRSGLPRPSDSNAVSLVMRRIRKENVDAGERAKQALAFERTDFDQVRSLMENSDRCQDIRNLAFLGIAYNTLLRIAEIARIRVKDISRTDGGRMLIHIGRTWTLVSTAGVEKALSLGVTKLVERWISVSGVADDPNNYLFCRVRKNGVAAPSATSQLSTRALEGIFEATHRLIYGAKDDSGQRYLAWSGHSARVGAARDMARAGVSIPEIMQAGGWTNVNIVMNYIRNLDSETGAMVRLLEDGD

[9] = biological target: T9, Cre recombinase monomer with Y324E mutation
T9 chain: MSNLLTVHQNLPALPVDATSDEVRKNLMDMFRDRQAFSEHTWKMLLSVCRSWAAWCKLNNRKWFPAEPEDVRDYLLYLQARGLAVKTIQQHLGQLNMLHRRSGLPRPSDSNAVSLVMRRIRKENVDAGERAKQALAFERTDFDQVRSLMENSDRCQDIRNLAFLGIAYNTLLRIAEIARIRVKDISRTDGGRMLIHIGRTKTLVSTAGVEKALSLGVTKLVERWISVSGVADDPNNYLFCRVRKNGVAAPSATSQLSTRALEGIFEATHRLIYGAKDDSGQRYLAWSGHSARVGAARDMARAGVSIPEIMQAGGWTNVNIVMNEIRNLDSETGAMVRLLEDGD

[10] = biological target: T10, Cre recombinase monomer with R292W mutation
T10 chain: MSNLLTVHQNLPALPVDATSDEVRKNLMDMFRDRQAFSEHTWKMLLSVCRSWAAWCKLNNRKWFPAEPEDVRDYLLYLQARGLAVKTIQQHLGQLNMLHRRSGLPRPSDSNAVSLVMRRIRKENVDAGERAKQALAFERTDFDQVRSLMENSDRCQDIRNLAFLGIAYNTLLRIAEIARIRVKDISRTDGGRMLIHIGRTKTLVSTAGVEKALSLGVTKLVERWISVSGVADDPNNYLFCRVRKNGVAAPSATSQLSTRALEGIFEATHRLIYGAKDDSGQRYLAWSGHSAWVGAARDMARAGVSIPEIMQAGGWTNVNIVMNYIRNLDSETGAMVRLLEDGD

[11] = biological target: T11, Cre recombinase monomer with W315I mutation
T11 chain: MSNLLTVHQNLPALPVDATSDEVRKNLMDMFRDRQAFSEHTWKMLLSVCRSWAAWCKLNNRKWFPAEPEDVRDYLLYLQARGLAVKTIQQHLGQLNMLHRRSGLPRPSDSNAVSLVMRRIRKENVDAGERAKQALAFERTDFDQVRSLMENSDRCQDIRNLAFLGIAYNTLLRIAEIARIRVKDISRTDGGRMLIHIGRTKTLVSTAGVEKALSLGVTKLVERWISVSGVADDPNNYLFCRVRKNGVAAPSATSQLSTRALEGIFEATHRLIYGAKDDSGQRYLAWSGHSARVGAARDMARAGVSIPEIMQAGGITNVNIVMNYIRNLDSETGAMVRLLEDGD

[12] = biological target: T12, Cre recombinase monomer with Y324M mutation
T12 chain: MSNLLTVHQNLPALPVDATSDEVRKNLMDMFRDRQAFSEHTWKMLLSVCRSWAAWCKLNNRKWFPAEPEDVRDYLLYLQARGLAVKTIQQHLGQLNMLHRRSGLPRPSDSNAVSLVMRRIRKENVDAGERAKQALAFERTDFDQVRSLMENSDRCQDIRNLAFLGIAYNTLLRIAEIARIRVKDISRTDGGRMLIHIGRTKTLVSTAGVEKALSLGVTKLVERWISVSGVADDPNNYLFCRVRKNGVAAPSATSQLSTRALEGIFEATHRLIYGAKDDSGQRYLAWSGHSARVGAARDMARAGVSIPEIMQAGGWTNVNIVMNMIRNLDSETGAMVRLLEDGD

B1: Cre recombinase monomer with R173L mutation (protein)
chain: MSNLLTVHQNLPALPVDATSDEVRKNLMDMFRDRQAFSEHTWKMLLSVCRSWAAWCKLNNRKWFPAEPEDVRDYLLYLQARGLAVKTIQQHLGQLNMLHRRSGLPRPSDSNAVSLVMRRIRKENVDAGERAKQALAFERTDFDQVRSLMENSDRCQDIRNLAFLGIAYNTLLLIAEIARIRVKDISRTDGGRMLIHIGRTKTLVSTAGVEKALSLGVTKLVERWISVSGVADDPNNYLFCRVRKNGVAAPSATSQLSTRALEGIFEATHRLIYGAKDDSGQRYLAWSGHSARVGAARDMARAGVSIPEIMQAGGWTNVNIVMNYIRNLDSETGAMVRLLEDGD
Which results are given for B1?
Median dimer activity (recombination on loxP) [1]: 66%; Median dimer activity (recombination on loxP) [2]: 41%; Median dimer activity (recombination on loxP) [3]: 94%; Median dimer activity (recombination on loxP) [4]: 63%; Median dimer activity (recombination on loxP) [5]: 88%

B2: Cre recombinase monomer with R173T mutation (protein)
chain: MSNLLTVHQNLPALPVDATSDEVRKNLMDMFRDRQAFSEHTWKMLLSVCRSWAAWCKLNNRKWFPAEPEDVRDYLLYLQARGLAVKTIQQHLGQLNMLHRRSGLPRPSDSNAVSLVMRRIRKENVDAGERAKQALAFERTDFDQVRSLMENSDRCQDIRNLAFLGIAYNTLLTIAEIARIRVKDISRTDGGRMLIHIGRTKTLVSTAGVEKALSLGVTKLVERWISVSGVADDPNNYLFCRVRKNGVAAPSATSQLSTRALEGIFEATHRLIYGAKDDSGQRYLAWSGHSARVGAARDMARAGVSIPEIMQAGGWTNVNIVMNYIRNLDSETGAMVRLLEDGD
How did the “Median dimer activity (recombination on loxP)” value (shortened to “Median dimer activity”) [1] turn out when B2 was run?
Its value is 56%.

What about the “Median dimer activity” value [6] of the same protein?
Its value is 72%.

And the “Median dimer activity” value [7]?
Its value is 65%.

And the “Median dimer activity” value [8]?
Its value is 91%.

And the “Median dimer activity” value [3]?
Its value is 92%.

B3: Cre recombinase monomer with R173S mutation (protein)
chain: MSNLLTVHQNLPALPVDATSDEVRKNLMDMFRDRQAFSEHTWKMLLSVCRSWAAWCKLNNRKWFPAEPEDVRDYLLYLQARGLAVKTIQQHLGQLNMLHRRSGLPRPSDSNAVSLVMRRIRKENVDAGERAKQALAFERTDFDQVRSLMENSDRCQDIRNLAFLGIAYNTLLSIAEIARIRVKDISRTDGGRMLIHIGRTKTLVSTAGVEKALSLGVTKLVERWISVSGVADDPNNYLFCRVRKNGVAAPSATSQLSTRALEGIFEATHRLIYGAKDDSGQRYLAWSGHSARVGAARDMARAGVSIPEIMQAGGWTNVNIVMNYIRNLDSETGAMVRLLEDGD
With B3 as the protein, how does the “Median dimer activity” value [7] read?
Its value is 49%.

And the “Median dimer activity” value [3]?
Its value is 97%.

What about the “Median dimer activity” value [9] of the same protein?
The value was 59%.

B4: Cre recombinase monomer with R173N mutation (protein)
chain: MSNLLTVHQNLPALPVDATSDEVRKNLMDMFRDRQAFSEHTWKMLLSVCRSWAAWCKLNNRKWFPAEPEDVRDYLLYLQARGLAVKTIQQHLGQLNMLHRRSGLPRPSDSNAVSLVMRRIRKENVDAGERAKQALAFERTDFDQVRSLMENSDRCQDIRNLAFLGIAYNTLLNIAEIARIRVKDISRTDGGRMLIHIGRTKTLVSTAGVEKALSLGVTKLVERWISVSGVADDPNNYLFCRVRKNGVAAPSATSQLSTRALEGIFEATHRLIYGAKDDSGQRYLAWSGHSARVGAARDMARAGVSIPEIMQAGGWTNVNIVMNYIRNLDSETGAMVRLLEDGD
Which “Median dimer activity” value [3] does the source give for B4 here?
The value was 96%.

What about the “Median dimer activity” value [10] of the same protein?
Its value is 44%.

And the “Median dimer activity” value [11]?
Its value is 38%.

What about the “Median dimer activity” value [12] of the same protein?
Its value is 51%.
